Results published in publication PMC9909464, “The human MRS2 magnesium-binding domain is a regulatory feedback switch for channel activity” (Life Science Alliance, 2023).

Columns and labels:
[1] = biological target: the molecule itself; assay: SEC-MALS; Superdex 200 Increase 10/300 GL, 20 mM Tris, 150 mM NaCl, 1 mM DTT, pH 8.0, ~10°C; no divalent cations; injected at 0.45-5 mg/ml; monomer to dimer
[2] = biological target: the molecule itself; assay: dynamic light scattering; 0.5 mg/ml in 20 mM Tris, 150 mM NaCl, 1 mM DTT, 10 mM CHAPS, pH 8.0, 37°C; no divalent cations (5 mM MgCl2 or 5 mM CaCl2 gave no change); higher order oligomers

B1: human MRS2 amino terminal domain, MRS2_(58–333) (domain or fragment, UniProt Q9HD23 58-333, looked up)
chain: DRLRVAGEVHRFRTSDVSQATLASVAPVFTVTKFDKQGNVTSFERKKTELYQELGLQARDLRFQHVMSITVRNNRIIMRMEYLKAVITPECLLILDYRNLNLEQWLFRELPSQLSGEGQLVTYPLPFEFRAIEALLQYWINTLQGKLSILQPLILETLDALVDPKHSSVDRSKLHILLQNGKSLSELETDIKIFKESILEILDEEELLEELCVSKWSDPQVFEKSSAGIDHAEEMELLLENYYRLADDLSNAARELRVLIDDSQSIIFINLDSHRN
notes: Cloned into pET-28a by NdeI and XhoI; also called MRS2 NTD; NTD; source: E. coli BL21 (DE3), purified (nickel-NTA, thrombin cleavage, SEC S200); not shown: His6, N-terminal, cleaved
[1]
  stoichiometry N: 2

B2: MRS2_(58–333) D216A/D220A (domain or fragment, human, UniProt Q9HD23 58-333, looked up)
chain: DRLRVAGEVHRFRTSDVSQATLASVAPVFTVTKFDKQGNVTSFERKKTELYQELGLQARDLRFQHVMSITVRNNRIIMRMEYLKAVITPECLLILDYRNLNLEQWLFRELPSQLSGEGQLVTYPLPFEFRAIEALLQYWINTLQGKLSILQPLILETLAALVAPKHSSVDRSKLHILLQNGKSLSELETDIKIFKESILEILDEEELLEELCVSKWSDPQVFEKSSAGIDHAEEMELLLENYYRLADDLSNAARELRVLIDDSQSIIFINLDSHRN
notes: also called D216A/D220A MRS2 NTD double mutant; not shown: His6, N-terminal, cleaved
[1]
  stoichiometry N: 2

B3: full-length human MRS2 excluding the mitochondrial targeting sequence, MRS2_(58–443) (natural protein, UniProt Q9HD23 58-443, looked up)
chain: DRLRVAGEVHRFRTSDVSQATLASVAPVFTVTKFDKQGNVTSFERKKTELYQELGLQARDLRFQHVMSITVRNNRIIMRMEYLKAVITPECLLILDYRNLNLEQWLFRELPSQLSGEGQLVTYPLPFEFRAIEALLQYWINTLQGKLSILQPLILETLDALVDPKHSSVDRSKLHILLQNGKSLSELETDIKIFKESILEILDEEELLEELCVSKWSDPQVFEKSSAGIDHAEEMELLLENYYRLADDLSNAARELRVLIDDSQSIIFINLDSHRNVMMRLNLQLTMGTFSLSLFGLMGVAFGMNLESSLEEDHRIFWLITGIMFMGSGLIWRRLLSFLGRQLEAPLPPMMASLPKKTLLADRSMELKNSLRLDGLGSGRSILTNR
notes: in CHAPS micelles in the assay; also called full-length MRS2; source: E. coli BL21 (DE3), purified as the NTD with 10 mM CHAPS in elution and SEC buffers; not shown: His6, N-terminal, cleaved
[2]
  binding result: binds
